Results published in paper PMC4267655, “Brr2p carboxy-terminal Sec63 domain modulates Prp16 splicing RNA helicase” (Nucleic Acids Research, 2014).

B1: Prp16p (wild type), LexA-bait fusion [budding yeast] / Brr2 H2-Sec63-2p (wild type), Gal4AD-prey fusion [budding yeast] (parent complex)
chain 1: MGHSGREERIKDIFKELTSKELTPGLLLTLQKLAQKPNTNLEQFIASCKALTKLSSNNPIIFNELLELLKNKSEEDSTGPKKIAPSINKRKKFKIQLDLDDNEDELDSPVQKKPAPTRTLFKRIDKLKAKQLRQYSPTVKDPSPNSEQQTQNGHAETKDYEPTRSEVVEEDREWYDNDDDYGNLVPEPLSELPEEAKLLPVIRNIDNDDALRNTVQLYPIPLKQRMEWIPPFLSKFALENKVPTSIIIGSISETSSQVSALSMVNPFRNPDSEFSANAKRGSKLVALRRINMEHIQQSRDNTTVLNTAMGEVLGLENNNKAKDKSNQKICDDTALFTPSKDDIKHTKEQLPVFRCRSQLLSLIRENQVVVIIGETGSGKTTQLAQYLYEEGYANDRGKSIVVTQPRRVAAISVAKRVAMEMQVPLGKEVGYSIRFEDVTDSECTKLKFVTDGILLRETLLDDTLDKYSCVIIDEAHERSLNTDILLGFFKILLARRRDLKLIITSATMNAKKFSAFFGNAPQFTIPGRTFPVQTIYTSNPVQDYVEAAVSQAVKIHLANDCSSGDILIFMTGQEDIETTFDTLQEKFLQVYSKKFGTANFEEINDIEILPIYSALPADLQFKIFQDLHGTKRKIIIATNIAETSLTIKGIRYVIDCGYSKLKVYNPKIGLDSLVITPISKANADQRSGRAGRTAPGTAYRLYTEDTFKEDMYLQTIPEIQRTNLSNTLLLLKSLDVTDELSKFPFIDKPPLQTFLSSLYELWFIGAIDTSGQLTPLGLQMAKFPLQPSLSKILLIAVRNGCSDEMLTIVSMLSVPQVFYRPKERQKEADIARNKFFIAKSDHLTLLNVFEQWRANNFSSHWCNKHFVQYKSLVRARDIRDQLLTILKSQKIPVISSGKDWDIIKKCICSGFAHQAAKITGLRNYVHLKTGVSVQLHPTSALHGLGDLPPYVVYHELLMTSKEYICCVTSVDPFWLMEYGGLLYDIKRIKNDQEATTTGLFGEHYEHTLDKVEDDIDINIRRCKDMRDSVIQELKMTDNSNKEDKKQKTKKQNILNGKENSMKPFKRRKPFF
chain 2: MTEHETKDKAKKIREIYRYDEMSNKVLKVDKRFMNTSQNPQRDAEISQPKSMSGRISAKDMGQGLCNNINKGLKENDVAVEKTGKSASLKKIQQHNTILNSSSDFRLHYYPKDPSNVETYEQILQWVTEVLGNDIPHDLIIGTADIFIRQLKENEENEDGNIEERKEKIQHELGINIDSLKFNELVKLMKNITDYETHPDNSNKQAVAILADDEKSDEEEVTEMSNNANVLGGEINDNEDDDEEYDYNDVEVNSKKKNKRALPNIENDIIKLSDSKTSNIESVPIYSIDEFFLQRKLRSELGYKDTSVIQDLSEKILNDIETLEHNPVALEQKLVDLLKFENISLAEFILKNRSTIFWGIRLAKSTENEIPNLIEKMVAKGLNDLVEQYKFRETTHSKRELDSGDDQPQSSEAKRTKFSNPAIPPVIDLEKIKFDESSKLMTVTKVSLPEGSFKRVKPQYDEIHIPAPSKPVIDYELKEITSLPDWCQEAFPSSETTSLNPIQSKVFHAAFEGDSNMLICAPTGSGKTNIALLTVLKALSHHYNPKTKKLNLSAFKIVYIAPLKALVQEQVREFQRRLAFLGIKVAELTGDSRLSRKQIDETQVLVSTPEKWDITTRNSNNLAIVELVRLLIIDEIHLLHDDRGPVLESIVARTFWASKYGQEYPRIIGLSATLPNYEDVGRFLRVPKEGLFYFDSSFRPCPLSQQFCGIKERNSLKKLKAMNDACYEKVLESINEGNQIIVFVHSRKETSRTATWLKNKFAEENITHKLTKNDAGSKQILKTEAANVLDPSLRKLIESGIGTHHAGLTRSDRSLSEDLFADGLLQVLVCTATLAWGVNLPAHTVIIKGTDVYSPEKGSWEQLSPQDVLQMLGRAGRPRYDTFGEGIIITDQSNVQYYLSVLNQQLPIESQFVSKLVDNLNAEVVAGNIKCRNDAVNWLAYTYLYVRMLASPMLYKVPDISSDGQLKKFRESLVHSALCILKEQELVLYDAENDVIEATDLGNIASSFYINHASMDVYNRELDEHTTQIDLFRIFSMSEEFKYVSVRYEEKRELKQLLEKAPIPIREDIDDPLAKVNVLLQSYFSQLKFEGFALNSDIVFIHQNAGRLLRAMFEICLKRGWGHPTRMLLNLCKSATTKMWPTNCPLRQFKTCPVEVIKRLEASTVPWGDYLQLETPAEVGRAIRSEKYGKQVYDLLKRFPKMSVTCNAQPITRSVMRFNIEIIADWIWDMNVHGSLEPFLLMLEDTDGDSILYYDVLFITPDIVGHEFTLSFTYELKQHNQNNLPPNFFLTLISENWWHSEFEIPVSFNGFKLPKKFPPPTPLLENISISTSELGNDDFSEVFEFKTFNKIQSQVFESLYNSNDSVFVGSGKGTGKTAMAELALLNHWRQNKGRAVYINPSGEKIDFLLSDWNKRFSHLAGGKIINKLGNDPSLNLKLLAKSHVLLATPVQFELLSRRWRQRKNIQSLELMIYDDAHEISQGVYGAVYETLISRMIFIATQLEKKIRFVCLSNCLANARDFGEWAGMTKSNIYNFSPSERIEPLEINIQSFKDVEHISFNFSMLQMAFEASAAAAGNRNSSSVFLPSRKDCMEVASAFMKFSKAIEWDMLNVEEEQIVPYIEKLTDGHLRAPLKHGVGILYKGMASNDERIVKRLYEYGAVSVLLISKDCSAFACKTDEVIILGTNLYDGAEHKYMPYTINELLEMVGLASGNDSMAGKVLILTSHNMKAYYKKFLIEPLPTESYLQYIIHDTLNNEIANSIIQSKQDCVDWFTYSYFYRRIHVNPSYYGVRDTSPHGISVFLSNLVETCLNDLVESSFIEIDDTEAEVTAEVNGGDDEATEIISTLSNGLIASHYGVSFFTIQSFVSSLSNTSTLKNMLYVLSTAVEFESVPLRKGDRALLVKLSKRLPLRFPEHTSSGSVSFKVFLLLQAYFSRLELPVDFQNDLKDILEKVVPLINVVVDILSANGYLNATTAMDLAQMLIQGVWDVDNPLRQIPHFNNKILEKCKEINVETVYDIMALEDEERDEILTLTDSQLAQVAAFVNNYPNVELTYSLNNSDSLISGVKQKITIQLTRDVEPENLQVTSEKYPFDKLESWWLVLGEVSKKELYAIKKVTLNKETQQYELEFDTPTSGKHNLTIWCVCDSYLDADKELSFEINVK

Variants of: B1
Experiment: Y2H interaction assay; growth on -LWH medium with 3-AT; parent: 50 nM

screen value | Variant
150 mM | chain 2 R1899G
0 mM | chain 2 L1951P

Variants of: B1
Experiment: as above
Remark: another data set of the same source

Variant | screen value
chain 1 R456K, chain 1 G691R | 0 mM
chain 1 Q685H | 50 mM
chain 1 L335F | 50 mM
chain 1 D473E | 50 mM
chain 1 K379R | 50 mM
chain 1 R686I | 0 mM
chain 1 H476D | 50 mM

Next, values leading:

screen value | Variant
50 mM | chain 1 T507A
50 mM | chain 1 R686Q
